Residue numbers refer to the chain shown, from its start. Numbers in names are those of the source.

The values below come from patent US20220040297A1 (Chugai, published 2022).

The labels stand for the following.
B1: CE115HA000 K52I (antibody, name in Kabat numbering, V domains shown)
VH: QVQLVESGGGVVQPGRSLRLSCAASGFTFSNAWMHWVRQAPGKGLEWVAQIIAKSNNYATYYAESVKGRFTISRDDSKNSLYLQMNSLKTEDTAVYYCRYVHYGAYYGVDAWGQGTTVTVSS
VL: DIVMTQSPLSLPVTPGEPASISCRSSQSLVHSNRNTYLHWYQQKPGQAPRLLIYKVSNRFSGVPDRFSGSGSGTDFTLKISRVEAEDVGVYYCGQGTQVPYTFGQGTKLEIK
B2: CE115HA000 N31S (antibody, name in Kabat numbering, V domains shown)
VH: B1 VH with N31S, I52K
VL: B1 VL
B3: CE115HA000 L78I (antibody, name in Kabat numbering, V domains shown)
VH: B1 VH with I52K, L81I
VL: B1 VL
B4: CE115HA000 K52bA (antibody, name in Kabat numbering, V domains shown)
VH: B1 VH with I52K, K54A
VL: B1 VL
B5: CE115HA000 N53W (antibody, name in Kabat numbering, V domains shown)
VH: B1 VH with I52K, N56W
VL: B1 VL
B6: CE115HA000 K64S (antibody, name in Kabat numbering, V domains shown)
VH: B1 VH with I52K, K67S
VL: B1 VL
B7: CE115HA000 N53G (antibody, name in Kabat numbering, V domains shown)
VH: B1 VH with I52K, N56G
VL: B1 VL
B8: CE115HA000 N54A (antibody, name in Kabat numbering, V domains shown)
VH: B1 VH with I52K, N57A
VL: B1 VL
B9: CE115HA000 K52R (antibody, name in Kabat numbering, V domains shown)
VH: B1 VH with I52R
VL: B1 VL
B10: CE115HA000 N53Q (antibody, name in Kabat numbering, V domains shown)
VH: B1 VH with I52K, N56Q
VL: B1 VL
B11: CE115HA000 N31D (antibody, name in Kabat numbering, V domains shown)
VH: B1 VH with N31D, I52K
VL: B1 VL
B12: CE115HA000 K64E (antibody, name in Kabat numbering, V domains shown)
VH: B1 VH with I52K, K67E
VL: B1 VL
B13: CE115HA000 N53S (antibody, name in Kabat numbering, V domains shown)
VH: B1 VH with I52K, N56S
VL: B1 VL
B14: CE115HA000 N31A (antibody, name in Kabat numbering, V domains shown)
VH: B1 VH with N31A, I52K
VL: B1 VL
B15: CE115HA000 N31R (antibody, name in Kabat numbering, V domains shown)
VH: B1 VH with N31R, I52K
VL: B1 VL
B16: CE115HA000 K52Y (antibody, name in Kabat numbering, V domains shown)
VH: B1 VH with I52Y
VL: B1 VL
B17: CE115HA000 K52W (antibody, name in Kabat numbering, V domains shown)
VH: B1 VH with I52W
VL: B1 VL
B18: CE115HA000 N53I (antibody, name in Kabat numbering, V domains shown)
VH: B1 VH with I52K, N56I
VL: B1 VL
B19: CE115HA000 N53H (antibody, name in Kabat numbering, V domains shown)
VH: B1 VH with I52K, N56H
VL: B1 VL
B20: CE115HA000 N53A (antibody, name in Kabat numbering, V domains shown)
VH: B1 VH with I52K, N56A
VL: B1 VL
B21: CE115HA000 N31I (antibody, name in Kabat numbering, V domains shown)
VH: B1 VH with N31I, I52K
VL: B1 VL
B22: CE115HA000 K52N (antibody, name in Kabat numbering, V domains shown)
VH: B1 VH with I52N
VL: B1 VL
B23: CE115HA000 N31H (antibody, name in Kabat numbering, V domains shown)
VH: B1 VH with N31H, I52K
VL: B1 VL
B24: CE115HA000 N31Y (antibody, name in Kabat numbering, V domains shown)
VH: B1 VH with N31Y, I52K
VL: B1 VL
B25: CE115HA000 K64A (antibody, name in Kabat numbering, V domains shown)
VH: B1 VH with I52K, K67A
VL: B1 VL
B26: CE115HA000 N31K (antibody, name in Kabat numbering, V domains shown)
VH: B1 VH with N31K, I52K
VL: B1 VL
B27: CE115HA000 K75T (antibody, name in Kabat numbering, V domains shown)
VH: B1 VH with I52K, K78T
VL: B1 VL
B28: CE115HA000 K52bD (antibody, name in Kabat numbering, V domains shown)
VH: B1 VH with I52K, K54D
VL: B1 VL
B29: CE115HA000 N31G (antibody, name in Kabat numbering, V domains shown)
VH: B1 VH with N31G, I52K
VL: B1 VL
B30: CE115HA000 N31F (antibody, name in Kabat numbering, V domains shown)
VH: B1 VH with N31F, I52K
VL: B1 VL
B31: CE115HA000 K52bN (antibody, name in Kabat numbering, V domains shown)
VH: B1 VH with I52K, K54N
VL: B1 VL
B32: CE115HA000 K52bR (antibody, name in Kabat numbering, V domains shown)
VH: B1 VH with I52K, K54R
VL: B1 VL
B33: CE115HA000 K52bY (antibody, name in Kabat numbering, V domains shown)
VH: B1 VH with I52K, K54Y
VL: B1 VL
B34: CE115HA000 K52S (antibody, name in Kabat numbering, V domains shown)
VH: B1 VH with I52S
VL: B1 VL
B35: CE115HA000 N53D (antibody, name in Kabat numbering, V domains shown)
VH: B1 VH with I52K, N56D
VL: B1 VL
B36: CE115HA000 N53K (antibody, name in Kabat numbering, V domains shown)
VH: B1 VH with I52K, N56K
VL: B1 VL
B37: CE115HA000 K52bS (antibody, name in Kabat numbering, V domains shown)
VH: B1 VH with I52K, K54S
VL: B1 VL
B38: CE115HA000 N31W (antibody, name in Kabat numbering, V domains shown)
VH: B1 VH with N31W, I52K
VL: B1 VL
B39: CE115HA000 K52bL (antibody, name in Kabat numbering, V domains shown)
VH: B1 VH with I52K, K54L
VL: B1 VL
B40: CE115HA000 K64Q (antibody, name in Kabat numbering, V domains shown)
VH: B1 VH with I52K, K67Q
VL: B1 VL
B41: CE115HA000 K52bQ (antibody, name in Kabat numbering, V domains shown)
VH: B1 VH with I52K, K54Q
VL: B1 VL
B42: CE115HA000 K64D (antibody, name in Kabat numbering, V domains shown)
VH: B1 VH with I52K, K67D
VL: B1 VL
B43: CE115HA000 N31Q (antibody, name in Kabat numbering, V domains shown)
VH: B1 VH with N31Q, I52K
VL: B1 VL

The target in the test is T1, CD3ε homodimer protein (human, UniProt P07766 23-126, limits assumed, sulfo-tag or biotin label in some ECL assays).
T1 construct: also called human CD3ε homodimer protein; CD3 (CD3ε)
T1 sequence (P07766 23-126 limits assumed): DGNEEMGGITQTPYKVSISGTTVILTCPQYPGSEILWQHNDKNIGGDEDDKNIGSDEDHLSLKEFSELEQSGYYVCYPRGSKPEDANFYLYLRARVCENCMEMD
Nature of the test: SPR, CD3ε homodimer on chip.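 Note: biacore SPR with antibody variants flowed as analyte over amine-coupled CD3ε homodimer on a CM chip, bound amount of each single-residue H chain variant over that of parent.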 A general note: Surface plasmon resonance follows binding to a sensor surface in real time, without labels.
On to B1, for which the “ratio of amounts bound vs CE115HA000” value was 0.33.

Turning to B2, the “ratio of amounts bound vs CE115HA000” value worked out at 0.81.

For B3, the “ratio of amounts bound vs CE115HA000” value was found to be 1.34.

In the case of B4, the “ratio of amounts bound vs CE115HA000” value came to 0.67.

As to B5, the “ratio of amounts bound vs CE115HA000” value came to 0.88.

On to B6, for which the “ratio of amounts bound vs CE115HA000” value was determined as 0.84.

As for B7, the “ratio of amounts bound vs CE115HA000” value worked out at 0.5.

With B8, the “ratio of amounts bound vs CE115HA000” value was 0.85.

For the molecule B9, the “ratio of amounts bound vs CE115HA000” value is 0.92.

Turning to B10, the “ratio of amounts bound vs CE115HA000” value was found to be 1.1.

As to B11, the “ratio of amounts bound vs CE115HA000” value turned out to be 0.37.

Take B12: the “ratio of amounts bound vs CE115HA000” value was 0.74.

For B13, the “ratio of amounts bound vs CE115HA000” value was found to be 0.83.

With B14, the “ratio of amounts bound vs CE115HA000” value came to 0.5.

Turning to B15, the “ratio of amounts bound vs CE115HA000” value is 1.14.

With B16, the “ratio of amounts bound vs CE115HA000” value was determined as 0.18.

In the case of B17, the “ratio of amounts bound vs CE115HA000” value came out at 0.22.

Take B18: the “ratio of amounts bound vs CE115HA000” value came to 0.68.

As for B19, the “ratio of amounts bound vs CE115HA000” value turned out to be 0.76.

Take B20: the “ratio of amounts bound vs CE115HA000” value was 0.7.

B21: the “ratio of amounts bound vs CE115HA000” value amounted to 0.81.

Consider B22, for which the “ratio of amounts bound vs CE115HA000” value stood at 0.34.

B23: the “ratio of amounts bound vs CE115HA000” value is 0.68.

Consider B24, for which the “ratio of amounts bound vs CE115HA000” value amounted to 0.64.

As for B25, the “ratio of amounts bound vs CE115HA000” value is 0.32.

For the molecule B26, the “ratio of amounts bound vs CE115HA000” value turned out to be 1.01.

Consider B27, for which the “ratio of amounts bound vs CE115HA000” value came to 9.34.

As to B28, the “ratio of amounts bound vs CE115HA000” value amounted to 0.27.

Regarding B29, the “ratio of amounts bound vs CE115HA000” value was determined as 0.39.

On to B30, for which the “ratio of amounts bound vs CE115HA000” value amounted to 0.62.

As for B31, the “ratio of amounts bound vs CE115HA000” value came out at 0.27.

For B32, the “ratio of amounts bound vs CE115HA000” value was 1.11.

In the case of B33, the “ratio of amounts bound vs CE115HA000” value was 0.74.

In the case of B34, the “ratio of amounts bound vs CE115HA000” value was determined as 0.28.

As for B35, the “ratio of amounts bound vs CE115HA000” value stood at 0.39.

With B36, the “ratio of amounts bound vs CE115HA000” value is 0.78.

Turning to B37, the “ratio of amounts bound vs CE115HA000” value is 0.68.

For B38, the “ratio of amounts bound vs CE115HA000” value stood at 0.63.

B39: the “ratio of amounts bound vs CE115HA000” value was determined as 0.61.

In the case of B40, the “ratio of amounts bound vs CE115HA000” value was 0.89.

For B41, the “ratio of amounts bound vs CE115HA000” value is 0.6.

As to B42, the “ratio of amounts bound vs CE115HA000” value came out at 0.72.

As for B43, the “ratio of amounts bound vs CE115HA000” value came out at 0.49.
